Assay results taken from patent publication US20210130436A1.

What was measured:
[1] = target: CD28 (human) (UniProt P10747); assay: cell-based or functional assay
[2] = target: PD-L1 (human) (UniProt Q9NZQ7); assay: cell-based or functional assay
Sequence of PD-L1 (human) (Q9NZQ7 19-290): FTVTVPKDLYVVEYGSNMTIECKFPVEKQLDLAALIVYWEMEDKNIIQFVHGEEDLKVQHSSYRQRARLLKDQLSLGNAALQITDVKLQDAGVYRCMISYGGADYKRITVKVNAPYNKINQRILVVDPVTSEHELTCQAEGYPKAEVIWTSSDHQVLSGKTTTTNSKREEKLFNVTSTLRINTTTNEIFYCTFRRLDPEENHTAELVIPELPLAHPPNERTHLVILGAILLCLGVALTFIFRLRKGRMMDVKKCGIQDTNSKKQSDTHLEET

IL-2 release, primary T cells; K562/OKT3 (No PD-L1); 1 nM [1] | IL-2 release, primary T cells; K562/OKT3 (No PD-L1); 10 nM [1] | IL-2 release, primary T cells; K562/OKT3 (No PD-L1); 100 nM [1] | RLU, Jurkat/IL2 reporter; K562/OKT3 aAPC, FcR Dependent Cross-Linking (No PD-L1); 0.6 nM [1] [RLU] | RLU, Jurkat/IL2 reporter; K562/OKT3 aAPC, FcR Dependent Cross-Linking (No PD-L1); 1.9 nM [1] [RLU] | RLU, Jurkat/IL2 reporter; K562/OKT3 aAPC, FcR Dependent Cross-Linking (No PD-L1); 5.6 nM [1] [RLU] | RLU, Jurkat/IL2 reporter; K562/OKT3 aAPC, FcR Dependent Cross-Linking (No PD-L1); 16.7 nM [1] [RLU] | RLU, Jurkat/IL2 reporter; K562/OKT3 aAPC, FcR Dependent Cross-Linking (No PD-L1); 50 nM [1] [RLU] | RLU, Jurkat/IL2 reporter; K562/OKT3/PD-L1 aAPC, Combination of FcR and/or PD-L1 Dependent Cross-Linking; 0.6 nM [2] [RLU] | RLU, Jurkat/IL2 reporter; K562/OKT3/PD-L1 aAPC, Combination of FcR and/or PD-L1 Dependent Cross-Linking; 1.9 nM [2] [RLU] | RLU, Jurkat/IL2 reporter; K562/OKT3/PD-L1 aAPC, Combination of FcR and/or PD-L1 Dependent Cross-Linking; 5.6 nM [2] [RLU] | RLU, Jurkat/IL2 reporter; K562/OKT3/PD-L1 aAPC, Combination of FcR and/or PD-L1 Dependent Cross-Linking; 16.7 nM [2] [RLU] | RLU, Jurkat/IL2 reporter; K562/OKT3/PD-L1 aAPC, Combination of FcR and/or PD-L1 Dependent Cross-Linking; 50 nM [2] [RLU] | IL-2-luciferase RLU, Jurkat + CHO/OKT3/PD-L1 aAPC, 0.6 nM [1] [RLU] | IL-2-luciferase RLU, Jurkat + CHO/OKT3/PD-L1 aAPC, 5.6 nM [1] [RLU] | IL-2-luciferase RLU, Jurkat + CHO/OKT3 aAPC (no PD-L1), 5.6 nM [1] [RLU] | IL-2-luciferase RLU, Jurkat + CHO/OKT3 aAPC (no PD-L1), 16.7 nM [1] [RLU] | IL-2-luciferase RLU, Jurkat + CHO/OKT3 aAPC (no PD-L1), 50 nM [1] [RLU] | IL-2 release, primary T cells; K562/OKT3/PD-L1; 100 nM [2] | Substance | also measured
15700 | 26000 | 25300 | 1610 | 2520 | 4230 | 5370 | 5780 | 2240 | 2690 | 3650 | 3910 | 3870 |  |  |  |  |  |  | variant CD80 IgV-Fc (effector) E35D/M47I/L70M (Fc fusion) | 
14600 | 23600 | 26800 | 2120 | 3040 | 5620 | 7740 | 8680 | 2780 | 3850 | 4730 | 5410 | 5040 |  |  |  |  |  |  | variant CD80 IgV-Fc (effector) E35D/M47L (Fc fusion) | 
7030 | 7900 |  | 1340 | 1370 | 1380 | 1430 | 1510 | 689 | 732 | 735 | 701 | 805 |  |  |  |  |  |  | variant CD80 IgV-Fc (effector) E35G/K54E/A71D/L72P (Fc fusion) | 
 |  |  |  |  |  |  |  |  |  |  |  |  | 524 | 659 | 566 | 560 | 606 | 102 | variant CD80 IgV-Fc (inert) E23G/A26S/E35D/T62N/A71D/L72V/L85M (Fc fusion) | IL-2-luciferase RLU, Jurkat + CHO/OKT3/PD-L1 aAPC, 16.7 nM [1]: 689 RLU; IL-2-luciferase RLU, Jurkat + CHO/OKT3/PD-L1 aAPC, 50 nM [1]: 695 RLU
 |  |  |  |  |  |  |  |  |  |  |  |  | 456 | 625 | 412 | 480 | 448 | 2740 | variant CD80 IgV-Fc (inert) E35D (Fc fusion) | IL-2-luciferase RLU, Jurkat + CHO/OKT3/PD-L1 aAPC, 1.9 nM [1]: 465 RLU; IL-2-luciferase RLU, Jurkat + CHO/OKT3/PD-L1 aAPC, 16.7 nM [1]: 995 RLU; IL-2-luciferase RLU, Jurkat + CHO/OKT3/PD-L1 aAPC, 50 nM [1]: 1610 RLU; IL-2 release, primary T cells; K562/OKT3/PD-L1; 10 nM [2]: 210

The next lines start with the substance.

Substance | IL-2 release, primary T cells; K562/OKT3 (No PD-L1); 1 nM [1] | IL-2 release, primary T cells; K562/OKT3 (No PD-L1); 10 nM [1] | IL-2 release, primary T cells; K562/OKT3 (No PD-L1); 100 nM [1] | RLU, Jurkat/IL2 reporter; K562/OKT3 aAPC, FcR Dependent Cross-Linking (No PD-L1); 0.6 nM [1] [RLU] | RLU, Jurkat/IL2 reporter; K562/OKT3 aAPC, FcR Dependent Cross-Linking (No PD-L1); 1.9 nM [1] [RLU] | RLU, Jurkat/IL2 reporter; K562/OKT3 aAPC, FcR Dependent Cross-Linking (No PD-L1); 5.6 nM [1] [RLU] | RLU, Jurkat/IL2 reporter; K562/OKT3 aAPC, FcR Dependent Cross-Linking (No PD-L1); 16.7 nM [1] [RLU] | RLU, Jurkat/IL2 reporter; K562/OKT3 aAPC, FcR Dependent Cross-Linking (No PD-L1); 50 nM [1] [RLU] | RLU, Jurkat/IL2 reporter; K562/OKT3/PD-L1 aAPC, Combination of FcR and/or PD-L1 Dependent Cross-Linking; 0.6 nM [2] [RLU] | RLU, Jurkat/IL2 reporter; K562/OKT3/PD-L1 aAPC, Combination of FcR and/or PD-L1 Dependent Cross-Linking; 1.9 nM [2] [RLU] | RLU, Jurkat/IL2 reporter; K562/OKT3/PD-L1 aAPC, Combination of FcR and/or PD-L1 Dependent Cross-Linking; 5.6 nM [2] [RLU] | RLU, Jurkat/IL2 reporter; K562/OKT3/PD-L1 aAPC, Combination of FcR and/or PD-L1 Dependent Cross-Linking; 16.7 nM [2] [RLU] | RLU, Jurkat/IL2 reporter; K562/OKT3/PD-L1 aAPC, Combination of FcR and/or PD-L1 Dependent Cross-Linking; 50 nM [2] [RLU] | IL-2-luciferase RLU, Jurkat + CHO/OKT3/PD-L1 aAPC, 0.6 nM [1] [RLU] | IL-2-luciferase RLU, Jurkat + CHO/OKT3/PD-L1 aAPC, 5.6 nM [1] [RLU] | IL-2-luciferase RLU, Jurkat + CHO/OKT3 aAPC (no PD-L1), 5.6 nM [1] [RLU] | IL-2-luciferase RLU, Jurkat + CHO/OKT3 aAPC (no PD-L1), 16.7 nM [1] [RLU] | IL-2-luciferase RLU, Jurkat + CHO/OKT3 aAPC (no PD-L1), 50 nM [1] [RLU] | IL-2 release, primary T cells; K562/OKT3/PD-L1; 100 nM [2] | also measured
variant CD80 IgV-Fc (effector) E23G/A26S/E35D/T62N/A71D/L72V/L85M (Fc fusion) | 15400 | 23500 | 27000 | 2020 | 3300 | 5050 | 7010 | 7860 | 1150 | 1950 | 3220 | 4040 | 4140 |  |  |  |  |  |  | 
variant CD80 IgV-Fc (effector) E35D (Fc fusion) | 7600 | 7990 | 8380 | 1400 | 1330 | 1300 | 1320 | 1200 | 920 | 1110 | 1400 | 1760 | 2270 |  |  |  |  |  |  | 
variant CD80 IgV-Fc (effector) E35D/D46V/L85Q (Fc fusion) | 14300 | 21500 | 25400 | 1880 | 2720 | 4400 | 6020 | 7020 | 1420 | 2430 | 3310 | 3640 | 4130 |  |  |  |  |  |  | 
variant CD80 IgV-Fc (effector) E35D/M43L/L70M (Fc fusion) | 8020 | 7710 | 10500 | 1350 | 1340 | 1400 | 1340 | 1570 | 1020 | 1250 | 1620 | 2050 | 2780 |  |  |  |  |  |  | 
variant CD80 IgV-Fc (effector) E35D/M47I (Fc fusion) | 11100 | 21600 | 27200 | 1780 | 2130 | 3650 | 5790 | 7140 | 2830 | 3600 | 4700 | 5320 | 5700 |  |  |  |  |  |  | 
variant CD80 IgV-Fc (effector) H18Y/A26T/E35D/A71D/L85Q (Fc fusion) |  | 20500 | 20600 | 2080 | 2810 | 4550 | 6960 | 8750 | 1160 | 1820 | 3120 | 4330 | 5220 |  |  |  |  |  |  | 
variant CD80 IgV-Fc (inert) A26E/E35D/M47L/L85Q (Fc fusion) |  |  |  |  |  |  |  |  |  |  |  |  |  | 509 | 886 | 458 | 415 | 432 | 1460 | IL-2-luciferase RLU, Jurkat + CHO/OKT3/PD-L1 aAPC, 1.9 nM [1]: 618 RLU; IL-2-luciferase RLU, Jurkat + CHO/OKT3/PD-L1 aAPC, 16.7 nM [1]: 1380 RLU; IL-2-luciferase RLU, Jurkat + CHO/OKT3/PD-L1 aAPC, 50 nM [1]: 2000 RLU; IL-2 release, primary T cells; K562/OKT3/PD-L1; 1 nM [2]: 72; IL-2 release, primary T cells; K562/OKT3/PD-L1; 10 nM [2]: 268
variant CD80 IgV-Fc (inert) E35D/D46V/L85Q (Fc fusion) |  |  |  |  |  |  |  |  |  |  |  |  |  | 611 | 1490 | 511 | 554 | 720 | 1430 | IL-2-luciferase RLU, Jurkat + CHO/OKT3/PD-L1 aAPC, 1.9 nM [1]: 1000 RLU; IL-2 release, primary T cells; K562/OKT3/PD-L1; 10 nM [2]: 102
